These results are taken from patent US20240052042A1 (Novartis, published 2024).

For assay [1], the target named is T1, hNPR1-ANP complex (human, UniProt P01160 124-151, limits assumed).
T1 construct: hNPR1 antigen in the presence of ANP; also called hNPR1 + 100 nM ANP
T1 sequence: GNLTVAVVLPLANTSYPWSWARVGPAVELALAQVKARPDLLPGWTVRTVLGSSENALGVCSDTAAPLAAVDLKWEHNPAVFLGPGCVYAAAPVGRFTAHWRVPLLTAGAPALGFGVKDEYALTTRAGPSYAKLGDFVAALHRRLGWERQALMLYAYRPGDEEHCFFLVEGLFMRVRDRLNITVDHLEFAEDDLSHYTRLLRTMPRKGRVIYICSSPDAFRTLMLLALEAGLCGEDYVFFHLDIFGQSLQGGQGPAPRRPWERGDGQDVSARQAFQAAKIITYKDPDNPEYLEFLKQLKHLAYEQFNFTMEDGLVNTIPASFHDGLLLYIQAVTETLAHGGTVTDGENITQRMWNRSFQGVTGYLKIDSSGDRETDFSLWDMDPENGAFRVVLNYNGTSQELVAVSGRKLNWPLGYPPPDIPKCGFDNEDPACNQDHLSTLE
T1 sequence (peptide): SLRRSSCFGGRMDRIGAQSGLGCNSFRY
Description: FabCys affinity determination.

Assay [2] concerns the target T2, human Natriuretic Peptide Receptor 1 (hNPR1) (human, UniProt P16066 33-473, limits assumed).
T2 construct: pannings used NPR1-hFc; also called NPR1-hFc
T2 sequence: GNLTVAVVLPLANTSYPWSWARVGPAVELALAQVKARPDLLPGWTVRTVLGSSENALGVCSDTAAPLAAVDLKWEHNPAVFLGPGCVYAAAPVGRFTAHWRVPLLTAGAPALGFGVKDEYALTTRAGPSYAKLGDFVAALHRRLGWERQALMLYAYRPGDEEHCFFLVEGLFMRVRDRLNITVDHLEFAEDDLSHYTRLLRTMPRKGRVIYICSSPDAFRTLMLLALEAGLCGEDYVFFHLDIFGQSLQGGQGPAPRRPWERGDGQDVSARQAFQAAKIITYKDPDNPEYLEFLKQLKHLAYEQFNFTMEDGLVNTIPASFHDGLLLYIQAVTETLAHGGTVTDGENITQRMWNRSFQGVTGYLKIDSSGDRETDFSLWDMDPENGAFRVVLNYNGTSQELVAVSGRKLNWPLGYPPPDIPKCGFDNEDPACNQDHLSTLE
Description: FabCys affinity determination.

The target in assay [3] is T3, human NPR1 on CHO-K1 cells (human, UniProt P16066 33-1061).
T3 sequence: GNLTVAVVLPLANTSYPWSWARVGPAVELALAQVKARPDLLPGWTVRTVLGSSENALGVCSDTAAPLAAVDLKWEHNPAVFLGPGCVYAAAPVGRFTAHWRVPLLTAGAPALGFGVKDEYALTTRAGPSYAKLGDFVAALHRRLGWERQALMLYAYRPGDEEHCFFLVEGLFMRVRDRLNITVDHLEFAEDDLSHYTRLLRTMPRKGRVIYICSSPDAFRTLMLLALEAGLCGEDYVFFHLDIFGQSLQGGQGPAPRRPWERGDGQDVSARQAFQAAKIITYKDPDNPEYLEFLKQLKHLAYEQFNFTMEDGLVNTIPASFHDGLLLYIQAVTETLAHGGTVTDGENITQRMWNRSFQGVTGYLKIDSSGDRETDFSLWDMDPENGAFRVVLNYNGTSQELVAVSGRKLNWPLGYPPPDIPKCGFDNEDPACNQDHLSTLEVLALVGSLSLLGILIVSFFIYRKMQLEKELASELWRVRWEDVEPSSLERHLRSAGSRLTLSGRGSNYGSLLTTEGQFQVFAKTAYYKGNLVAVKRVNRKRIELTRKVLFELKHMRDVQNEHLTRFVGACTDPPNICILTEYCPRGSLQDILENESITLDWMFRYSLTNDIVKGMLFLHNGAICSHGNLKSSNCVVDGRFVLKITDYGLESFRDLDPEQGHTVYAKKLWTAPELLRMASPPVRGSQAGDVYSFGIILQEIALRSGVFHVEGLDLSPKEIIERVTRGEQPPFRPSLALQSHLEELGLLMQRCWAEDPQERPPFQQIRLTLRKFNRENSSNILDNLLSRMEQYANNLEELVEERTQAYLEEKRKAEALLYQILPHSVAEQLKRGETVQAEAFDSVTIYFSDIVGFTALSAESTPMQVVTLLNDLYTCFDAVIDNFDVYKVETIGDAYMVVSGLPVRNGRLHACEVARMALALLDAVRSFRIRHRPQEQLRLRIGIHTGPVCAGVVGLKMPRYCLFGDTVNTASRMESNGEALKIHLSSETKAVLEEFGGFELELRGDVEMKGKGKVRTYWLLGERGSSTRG
As to the kind of experiment: cell-based or functional assay.

The target of assay [4] is T1, hNPR1-ANP complex. Description: FabCys, parental value as in Table 14 (no method comment).
For assay [5], the target named is T2, human Natriuretic Peptide Receptor 1 …. The description is as above.
Assay [6] deals with T4, human NPR1 on CHO-K1 cells in the presence of ANP (human, UniProt P01160 124-151).
T4 construct: also called hNPR1 CHO K1 + 100 nM ANP
T4 sequence: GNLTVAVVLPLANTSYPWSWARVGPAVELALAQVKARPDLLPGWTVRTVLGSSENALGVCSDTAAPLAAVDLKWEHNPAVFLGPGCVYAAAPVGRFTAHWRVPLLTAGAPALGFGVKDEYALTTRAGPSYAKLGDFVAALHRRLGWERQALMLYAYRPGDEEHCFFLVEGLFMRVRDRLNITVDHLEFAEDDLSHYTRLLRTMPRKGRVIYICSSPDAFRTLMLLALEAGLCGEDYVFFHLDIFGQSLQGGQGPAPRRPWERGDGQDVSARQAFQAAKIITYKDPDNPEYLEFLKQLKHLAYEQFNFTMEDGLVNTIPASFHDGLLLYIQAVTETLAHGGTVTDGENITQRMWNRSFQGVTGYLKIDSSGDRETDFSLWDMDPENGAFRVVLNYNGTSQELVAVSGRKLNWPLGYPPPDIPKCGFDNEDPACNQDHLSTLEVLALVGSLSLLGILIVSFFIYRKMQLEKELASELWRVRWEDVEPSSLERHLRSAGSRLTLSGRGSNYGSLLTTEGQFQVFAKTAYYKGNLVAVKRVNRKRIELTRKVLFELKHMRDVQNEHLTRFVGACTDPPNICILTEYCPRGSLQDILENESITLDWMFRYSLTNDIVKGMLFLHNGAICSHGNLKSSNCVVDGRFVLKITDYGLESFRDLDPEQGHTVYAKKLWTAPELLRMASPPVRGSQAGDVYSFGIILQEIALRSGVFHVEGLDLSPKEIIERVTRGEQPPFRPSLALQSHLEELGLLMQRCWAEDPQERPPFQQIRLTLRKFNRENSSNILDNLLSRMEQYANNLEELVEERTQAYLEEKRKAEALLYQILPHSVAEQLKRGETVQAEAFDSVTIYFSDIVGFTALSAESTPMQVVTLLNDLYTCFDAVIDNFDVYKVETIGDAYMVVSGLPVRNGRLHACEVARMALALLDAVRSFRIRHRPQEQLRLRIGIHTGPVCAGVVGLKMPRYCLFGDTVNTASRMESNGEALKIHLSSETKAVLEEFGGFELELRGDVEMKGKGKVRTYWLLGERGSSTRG
T4 sequence (peptide): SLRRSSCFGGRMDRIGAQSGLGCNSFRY
Description: flow cytometry (FL2-H) on hNPR1 CHO-K1 cells with saturating ANP, IgG titrated; control parental CHO-K1 [panel WW01]. Background: A flow cytometer gives signals particle by particle.

Assay [7] deals with T4, human NPR1 on CHO-K1 cells in the …. As to the kind of experiment: flow cytometry, hNPR1 CHO-K1 cells, IgG.
Assay [8] concerns the target T3, human NPR1 on CHO-K1 cells. Description: flow cytometry, hNPR1 CHO-K1 cells, IgG.
Assay [9] addresses T1, hNPR1-ANP complex. As to the kind of experiment: ELISA, IgG.

What is called Kd is the free concentration of one partner at which half of the binding sites on the other are occupied at equilibrium, for simple one-to-one binding. One may read the EC50 (read off the curve) as the concentration giving half of the maximal effect. The EC50 is the concentration needed to bring the measured effect to its halfway point. The low end stands for a more potent agent, the high end for a less potent agent.

B1: YY07 (FabCys format) (Fab, V domains shown)
VH: EVQLVQSGAEVKKPGESLKISCKGSGYSFTSYWISWVRQMPGKGLEWMGIIYPGTSYTRYSPSFQGQVTISADKSISTAYLQWSSLKASDTAMYYCARGSLPGLLGFDHWGQGTLVTVSS
VL: QSVLTQPPSVSGAPGQRVTISCTGSSSNIGAGYDVHWYQQLPGTAPKLLIYGNSNRPNGVPDRFSGSKSGTSASLAITGLQAEDEADYYCQSYDSPTSSSVFGGGTKLTVL
notes: Monovalent FabCys
On to B1, for which the dissociation constant Kd in assay [1] was found to be 590 nM; in assay [2] it was 1.8 nM; in [4], 590 nM; in assay [5], 1.8 nM. The “cGMP conc [nM] at 1 µM FabCys, +0.075 nM ANP” value in assay [3] was 88 nM. The “cGMP conc [nM] at 1 µM FabCys, without ANP” value in assay [3] amounted to 77 nM.

B2: WW01 (IgG format) (antibody, V domains shown)
VH: QVQLLESGGGLVQPGGSLRLSCAASGFTFNTHYIHWVRQAPGKGLEWVSSISGSGSNTYYADSVKGRFTISRDNSKNTLYLQMNSLRAEDTAVYYCARERGYVYYHMFDPWGQGTLVTVSS
VL: DIVLTQSPATLSLSPGERATLSCRASQSITRNYLAWYQQKPGQAPRLLIYGASSRATGIPARFSGSGSGTDFTLTISSLEPEDFAVYYCQQHSMYPRTFGQGTKVEIKR
notes: also called WW01_LALA
Take B2: in [6], the “EC50 (read off the curve)” value is about 3 nM. In addition, the “flow cytometry S/BG at 2 µM IgG” value amounted to 222 S/BG in assay [7] and 19.9 S/BG in assay [8]. The EC50 in assay [9] is 1 nM.
